Measured values taken from article PMC4187121, “Flexible Enantioselectivity of Tryptophanase Attributable to Benzene Ring in Heterocyclic Moiety of D-Tryptophan” (Life : Open Access Journal, 2012).

Legend:
[1] = system: T1, N[C@@H](Cc1c[nH]c2ccccc12)C(=O)O; experiment: L-tryptophan degradation by tryptophanase, kinetic and inhibition analysis (indole formation, Ehrlich reagent); assay type: biochemical, E. coli; details: other: L-tryptophan degradation, pH 8.3
T1 construct: purchased Sigma-Aldrich Co. (St. Louis, MO, USA)
Protocol: When tryptophanase degraded L-tryptophan, all reaction mixtures included 0.2 mM of pyridoxal 5′-phosphate and 0.23 μM of tryptophanase in 100 mM potassium phosphate buffer of pH 8.3. DAP concentrations were prepared to the required concentrations of 0, 0.6, 1.2, 1.9 or 3.1 M. L-tryptophan. The reaction mixture was prepared to a concentration of 98, 108, 128, 137, 147, 167, 196, 225, 245, 294, 343, 392, 490, 680 or 980μM for kinetic analyses. Reactions were performed at 37 °C for 30 min in a Dry Thermo Unit DTU-1B (Taitec, Tokyo, Japan). Although D-tryptophan in addition to L-tryptophan was also degraded into indole in the presence of DAP, an indole production amount from D-tryptophan was neglected at this reaction temperature and time because the catalytic efficiency for D-tryptophan was 0.3% of that for L-tryptophan. On the other hand, the reaction condition of D-tryptophan degradation differed in several ways from that of L-tryptophan degradation. Each concentration of pyridoxal 5′-phosphate and tryptophanase was 1.2 mM and 0.92μM, and additionally reaction temperature and time was 55 °C and 2 h, respectively. All the other reaction conditions were the same as in the L-tryptophan degradation.
The total volume of the reaction mixture was 2 mL per tube. The reaction was stopped by adding 2 mL of n-butanol, which was vigorously mixed and then immediately centrifuged at approximately 1,000 G for 10 min. After centrifugation, the reaction mixture was separated into two layers of butanol and aqueous solutions in which indole was equally distributed. The supernatant butanol layer was extracted to be mixed with an equal volume of Ehrlich reagent, then colored red at 60 °C for 30 min in Dry Thermo Unit. […] Tryptophanase activity was assayed in triplicate at the same substrate concentration and then averaged. Initial velocity was computed based on the averaged value.
(§1) Initial velocities were defined by indole that formed within 1 minute after 1 mg of tryptophanase was added. Then the reciprocal of (initial velocity/[E] (enzyme concentration)) (ordinate) versus the reciprocal of substrate concentration (abscissa) was drawn for each concentration of L- or D-tryptophan. These double-reciprocal plots were drawn based on the least squares method to calculate kinetic parameters. Kcatwas determined from the reciprocal of the intercepts of these double-reciprocal plots, and the Michaelis constant Km from substrate concentration at 1/v = 0 in the absence of inhibitor. In noncompetitive inhibition, two inhibition constants of Ki (=[E][I]/[EI], E: enzyme; I: inhibitor; EI: enzyme-inhibitor complex) and Ki' (=[ES][I]/[ESI], ES: enzyme-substrate complex; ESI: enzyme-substrate-inhibitor complex) were determined from the slopes and from the intercepts, respectively. In the mixed type inhibition, Ki and Ki' were determined from x and y coordinates of the fixed point in the second quadrant.

[2] = system: T2, N[C@H](Cc1c[nH]c2ccccc12)C(=O)O; experiment: D-tryptophan degradation by tryptophanase in the presence of 3.1 M DAP, kinetic and inhibition analysis; assay type: biochemical, E. coli; details: other: 3.1 M DAP, 55 °C, pH 8.3
T2 construct: purchased Sigma-Aldrich Co. (St. Louis, MO, USA)
Protocol: When tryptophanase degraded L-tryptophan, all reaction mixtures included 0.2 mM of pyridoxal 5′-phosphate and 0.23 μM of tryptophanase in 100 mM potassium phosphate buffer of pH 8.3. DAP concentrations were prepared to the required concentrations of 0, 0.6, 1.2, 1.9 or 3.1 M. L-tryptophan. The reaction mixture was prepared to a concentration of 98, 108, 128, 137, 147, 167, 196, 225, 245, 294, 343, 392, 490, 680 or 980μM for kinetic analyses. Reactions were performed at 37 °C for 30 min in a Dry Thermo Unit DTU-1B (Taitec, Tokyo, Japan). […]
as §1, with “Then the reciprocal of (initial velocity/[E] (enzyme concentration)) (ordinate) versus the reciprocal of substrate concentration (abscissa) was drawn for each concentration of L- or D-tryptophan. These double-reciprocal plots were drawn based on the least squares method to calculate kinetic parameters.” left out

Substance: tryptophanase (Escherichia coli K-12)
- Km ([1]; DAP 0 M): 0.3 mM
- kcat ([1]; DAP 0 M): 0.4 s⁻¹
- kcat/Km ([1]; DAP 0 M): 1300 M⁻¹ s⁻¹
- Km ([1]; DAP 0.6 M): 0.2 mM
- kcat ([1]; DAP 0.6 M): 0.18 s⁻¹
- kcat/Km ([1]; DAP 0.6 M): 900 M⁻¹ s⁻¹
- Km ([1]; DAP 1.2 M): 0.2 mM
- kcat ([1]; DAP 1.2 M): 0.15 s⁻¹
- kcat/Km ([1]; DAP 1.2 M): 800 M⁻¹ s⁻¹
- Km ([1]; DAP 1.9 M): 0.2 mM
- kcat ([1]; DAP 1.9 M): 0.11 s⁻¹
- kcat/Km ([1]; DAP 1.9 M): 600 M⁻¹ s⁻¹
- Km ([1]; DAP 3.1 M): 0.2 mM
- kcat ([1]; DAP 3.1 M): 0.07 s⁻¹
- kcat/Km ([1]; DAP 3.1 M): 400 M⁻¹ s⁻¹
- Km [2]: 0.6 mM
- kcat [2]: 0.07 s⁻¹
